# Laboratory results taken from the nanobody polyreactivity screen of Harvey et al. (2022).
# Test: yeast display, Sf9 membrane polyspecificity reagent, FACS + sequencing; frameworks hold sequencing errors
# Method in brief: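 Nanobodies from a synthetic yeast display library (Saccharomyces cerevisiae BJ5465), induced 36–48 hours with galactose, were stained 1 hour at 4 °C with 10% biotinylated, detergent-solubilized Sf9 membrane reagent, enriched on streptavidin microbeads, then FACS-sorted. Anti-HA (expression) and streptavidin (reagent binding) fluorescence set low and high (top ~1%) gates. Polyreactivity labels come from the gate of origin. Genes were colony-PCR amplified, MiSeq 2 × 250 sequenced and filtered by CDR length.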
row,Sequence,polyreactivity (PSR sort gate)
1,QVQLVESGGGLVQAGGSLRLICAASGSIFEYYAIRLYRQAPGTERELVADITYDGGNTYYADSLKGRFTISRDNAKNTVYLQMNSLKPEDTAVYYCATEYRYWQSDYSTYFPYDYWGQGTQVTVSS,low polyreactivity
2,QVQLVESGGGLVQAGGSLRLICAASGSIFFYNAMGWYRQAPGKERELVAAITTRGGSTYYADSVKGRFTISRDNAKNTVYLQMNSLKPEDTAVYYCARSSRGKLDYWGQGTQVTVSS,low polyreactivity
3,QVQLVESGGGLVQAGGSLRLICAASGSIFHRYTMGWYRQAPGKERELVAAINYSGSTTHYADSVKGRFTISRDNAKNTVYLQMNSLKPEDTAVYYCAAGSTRWYPTRVRYDYWGQGTQVTVSS,low polyreactivity
4,QVQLVESGGGLVQAGGSLRLICAASGSIFITYAMGWSRPAPGKERELVAAIRDSGDRTYYADSVKGRFTISRDNAKNTVYLQMNSLKPEDTAVYYCNARWQERLKYDYWGQGTQVTVSS,low polyreactivity
5,QVQLVESGGGLVQAGGSLRLICAASGSIFPHYAMGWYRPAPGKERELVAAISRGGSTNYADSVKGRFTISRDNAKNTVYLQMNSLKPEDTAVYYCNALRYYSRFMYAVAYRYDYWGQGTQVTVSS,high polyreactivity
6,QVQLVESGGGLVQAGGSLRLICAASGSIFTKYAMVWYRQAPGKERELVAAITWSGGRTYYADSVKGRYTISRDNAKNTVYLQMNSLKPEDTAVYYCAAELFRQGYYYWGQGTQVTVSS,high polyreactivity
7,QVQLVESGGGLVQAGGSLRLICAASGSIFVGNAMGWYRQAPGKERELVAAITSSGGRTYYADSVKGRFTISRDNAKNTVYLQMNSLKPEDTAVYYCNTSRTRRFSLWAYDYWGQGTQVTVSS,high polyreactivity
8,QVQLVESGGGLVQAGGSLRLICAASGSIFVIYAMGWYRQAPGKERELVAAITSGGNTTYADSVKGRFTISRDNAKNTVSLQMNSLKPEDTAVYYCSADYPWEYDYWGQGTQVTVSS,low polyreactivity
9,QVQLVESGGGLVQAGGSLRLICAASGSIFYFYAMGWYREAPGKERELVAAIRYNGGSTYYADSVKGRFTISRDNAKNTVYLQMNSLKPEDTAVYYCAAGGFHYVYYRGMYYWGQGTQVTVSS,high polyreactivity
10,QVQLVESGGGLVQAGGSLRLICAASGSIFYGYAMGWYRPAPGKERELVAAISYSGDRTYYADSVKGRFTISRDNAKNSVYLQMNSLKPEDTAVYYCAAQRRYGDDYWGQGTQVTVSS,high polyreactivity
11,QVQLVESGGGLVQAGGSLRLICAASGSIFYRYTMGWYRQAPGKERELVAAISSRGGSTYYADSVKGRFTISRDNAKNTVYLQMNSLKPEYTAVYYCAARFSYWAPSKGYGYWGQGTQVTVSS,high polyreactivity
12,QVQLVESGGGLVQAGGSLRLICAASGSKFSSYCMGWYRQATGQEMELVAAISKRGGSTYYADTVKGRFTISRDNAKNTVYLQMNSLKPEDTAVYYCAAAVSIQGYSTLFDYWGQGTQVTVSS,high polyreactivity
13,QVQLVESGGGLVQAGGSLRLICAASGSNFGSNAMGWYRQAPGKETEFVAVITWRVGVTYYADSVKGRFTISRDNAKNTVYLQMNSLKPEDTAVYYCNVDWKVYGAPDYRIAWKYDYWGQGTQVTVSS,low polyreactivity
14,QVQLVESGGGLVQAGGSLRLICAASGSTFDGYAMGWYRQAPGKERELVAAISKNGVRTYYADSVKGRFTISRDNAKNTVYLLMNSLKPEDTAVYYCAKDIIKYDYDYWGQGTQVTVSS,low polyreactivity
15,QVQLVESGGGLVQAGGSLRLICAASGSTFEYYAMGWYRPAPGKERELVAAINGIGGSTTYADSVKGRFTISRDNAKNTVYLQMNSLKPEDSAVYYCNADVARSKSQASAYDYWGQGTQVTVSS,low polyreactivity
16,QVQLVESGGGLVQAGGSLRLICAASGSTFFYNAMGWYRQAPGKEREFVAAIRWRGGSTYYADSVKGRFTISRDNAKNTVYLQMNSLKPEDTAVYYCAAVYYRWEYDYWGQGTQVTVSS,high polyreactivity
17,QVQLVESGGGLVQAGGSLRLICAASGSTFGAYAMGWYRQAPGKERELVAAISRSGGTTYYADSVKGRFTISRDNSKNTVYLQMNSLKPEDTEVYYCAADWLNSVPYNYWGQGTLVTVSS,low polyreactivity
18,QVQLVESGGGLVQAGGSLRLICAASGSTFGPNAMGWYRQAPGKEREFVASISWRGGRTYYADSVKGRFTISRDNAKNSVYLQMYCLKPEDTAVSYCAAVSYPAVYGFDYWGQGTQVTVSS,high polyreactivity
19,QVQLVESGGGLVQAGGSLRLICAASGSTFIKYTMGWYRPAPGKERELVAAISRIGGSTYYADSVKGRFTISRDNAKNTVYLQMNSLKPEDTAVYYCAAPYPIGHDWGQGTQVTVSS,low polyreactivity
20,QVQLVESGGGLVQAGGSLRLICAASGSTFLKYTMVWYRQAPWKERELVAAISKSGGSTYYADSVKGRFTISRDHAKNTVYLQMNSLKPEDTAVYYCAKVRSWVSSYGYGYWGQGTQVTVSS,high polyreactivity
21,QVQLVESGGGLVQAGGSLRLICAASGSTFLSNAMGWYRQATGKERELVAAITTSGTSTFYSDSVKGRFTISRDNAKNTVYLQMNSMKPEDTAVYYCAADSAHRYIPVQGYDYWGQGTQVTVSS,low polyreactivity
22,QVQLVESGGGLVQAGGSLRLICAASGSTFNDYVMGWYRQAPGKERELVAAISRSGGSTYYADSVKGRITISRDNAKNTVYLQMNSLKPEDTAVYYCAAASPGPWRYDYWGQGTQVTVSS,high polyreactivity

row,Sequence,polyreactivity (PSR sort gate)
1,QVQLVESGGGLVQAGGSLRLICAASGSTFPGYAMGWYRQAPGKERELVATITRRGGSTYYADSVKGRFTISRDNAKNTVYLQMNSLKPEDTAVYYCNAVDYTVWLFPYDTGVDYWGQGTQVTVSS,low polyreactivity
2,QVQLVESGGGLVQAGGSLRLICAASGSTFSDNAMGWYRPAPGKERELVAAISRSGGSTYYADSVKGRFTLSRDNANNTVYLQMNSLKPEDTAFYYGATKSVLTGYDSWGQGTKVTVSS,high polyreactivity
3,QVQLVESGGGLVQAGGSLRLICAASGSTFTPNDMGWYRQAPGKERELVADISNYADSVKGRFTISRDNAKNTVYLQMNSLKPEDSAVYYCAAEWGGDRYGLYVVSWWYDYWGQGTQVTLSS,low polyreactivity
4,QVQLVESGGGLVQAGGSLRLICAASGSTFTPYAMGWYRQEPGKERELVAAIRGSGGRTYYADSVKGRFTISRDNAKNTVYLQMNSLKPEDTAVYYCAASWLYTGWGRYDYWGQGTQVTVSS,high polyreactivity
5,QVQLVESGGGLVQAGGSLRLICAASGSTFVEYAMGWYRQAPGKERELVATISYRGTRTYYADSVKGRFTISRDNAKNTVYLQMNSLKPEDTAVYYCAARSWFRTVEYDYWGKGTQVTVSS,high polyreactivity
6,QVQLVESGGGLVQAGGSLRLICAASGSTFWWYAMGWYRKAPGKEREFVAAIRWSSGSTYYADSVKGRFTISRDNAKNTVYLQMNSLKPEDTAVYYCATDDTSNVYVDLDYWGQGTQVTVSS,high polyreactivity
7,QVQLVESGGGLVQAGGSLRLICAASGSTFYHNVMGWYRQAPGKERELLASIYRGGSTYYADSVKGRFTISRDNAKNTVYVQMNSLKPEDTAVYYCAADLSSDSSYSGYDYSGQGTQVTVSS,low polyreactivity
8,QVQLVESGGGLVQAGGSLRLICAASGSTFYIYAMGWYRQAPGKERELGATISSTGSTHYADSVKGRFTISRDNAKNTVYLQMNSLKPEDTAVYYCNRVYFGRYSRRDHWGQGTQVTVSS,high polyreactivity
9,QVQLVESGGGLVQAGGSLRLICAASGSTFYSYTMGWYRPAPGKERELVARISSSGSTNYADSVKGRFTISRYNAKNTVYLQMNSLKPEDTAVYYCNKDWFYRGYDYWGQGTQVTVSS,high polyreactivity
10,QVQLVESGGGLVQAGGSLRLICAASGSTFYTYAMGWYRQAPGKEREFVAAIRWRGGSTYYADSVKGRFTISRDNSKNTVFLQMNSLKPEDTAVYYCAAVSPGTVTNGKSRDYWGQGTQVTVSS,high polyreactivity
11,QVQLVESGGGLVQAGGSLRLICAASGSTFYYYTRVWYRQAPGKERELVAAISYGGSSTYYADSVKGRFTISRDNAKNSVYLQMNSLKPEDTAVYYCAAEYDWSYWLSYDYWGQGTLVTVSS,low polyreactivity
12,QVQLVESGGGLVQAGGSLRLICAASGSTLKYYAMGWYRQAPGKERELVARITRSSGSTYYADSVKGRFTISRDNAKNTVYLQMNSLKPEDTAVYYCNAYGRFGLYDYWGQGTQVTVSS,high polyreactivity
13,QVQLVESGGGLVQAGGSLRLICAASGSTLVVNAMGWYRQAPGKERELVAAITSGGSTNYADSVKGRFTISRDNAKNTVYLQMNSLKPEDTAVYYCNAERGRSFWWAYDYWGQGTQVTVSS,low polyreactivity
14,QVQLVESGGGLVQAGGSLRLICAASGTIFDIYAMGWYRQAPGKERELVAAISLSAGSTYYADSVKGRFTISRDNAKNTVYLQMNSLKPEDTAGYYFNADGWYGYWGQGTQVTVSS,low polyreactivity
15,QVQLVESGGGLVQAGGSLRLICAASGTIFITNAMGWYRPAPGKERELVAAISGRGGSTYYADSVKGRFTISRDNAKNTVYLQMNSLKPEDTAVYYCNAYSYRVSGYDYWGQGTQVTVSS,high polyreactivity
16,QVQLVESGGGLVQAGGSLRLICAASGYIFAYNTMGWYRQAPGKERELVAAISRSGGSTYYADSVKGRFTISRDNAKNTVYLQMNSLKPEDTAVYSCAARYAPLDFRFDYWGQGTQVTVSS,high polyreactivity
17,QVQLVESGGGLVQAGGSLRLICAASGYTFAFYAMGWYRQAPGKEREFVASINWNGSSTYADSVKGRFTISRDNAKNTVYLQMNSLKPEDTAVYYCNADYNRNSVQFSLYDYWGQGTQVTVSS,low polyreactivity
18,QVQLVESGGGLVQAGGSLRLICAASGYTFGHYVMGWYRQAPGKERELGAAISRGGGSTSYADSVKGRFTISRDNAKNTVYLQMNSLKPEDTAVYYCAKKSTYFKWSRMYWGQGTQVTVSS,high polyreactivity
19,QVQLVESGGGLVQAGGSLRLICAASGYTFGYYAMGWYRQAPGKERELVAAISWRGARTNYADSVEGRFTISRDNAKNTVYLQMNSLKPEDTAVYYCAARGGYYQGRYKYGYWGQGTQVTVSS,high polyreactivity
20,QVQLVESGGGLVQAGGSLRLICAASGYTFPYNVMGWYRQAQGKERELVAAITSSGGSTYYADSVKGRFTISRDNAKTTVYLQMNSLKPEDTAVYYCNASPSSSLFDYLGQGTQVTVSS,low polyreactivity
21,QVQLVESGGGLVQAGGSLRLICAASRSNFFPYAMGWYRQAPGKERELVDTISGSTGRTYYADSVKGRFTISRDNAKNTVYLQMNSLKPQDTAVYYCATSVGYYLAPIKYDYWGQRTQVTVSS,low polyreactivity
